Data published in patent publication US7988958B2, “Enterococcus and Streptococcus strains and bacteriocins” (The United States of America as represented by the …, priority 2005, dated 2011).

Key:
E. coli O157:H7 904 [1] = experiment: Spot test; assay type: cell-based; details: for Inhibiting activity in Spot Test: crude antimicrobial preparation (CAP), E. coli O157:H7 904; for Inhibiting Activity, Spot Test: purified bacteriocin, E. coli O157:H7
C. jejuni NCTC 11168 [2] = experiment: IEF gel tested for growth inhibition of test strain; assay type: cell-based, Campylobacter jejuni; details: for Inhibiting Activity measured by IEF: CAP, active band, C. jejuni NCTC 11168; for Inhibiting Activity IEF: purified bacteriocin, C. jejuni
Method: (§1) CAPs and bacteriocins were electrophoresed in about 15% […] gel weight, about 1% SDS (9×12 cm) in Tri-glycine buffer. After electrophoresis at about 100 mA for approximately 4 hours, gels were fixed with a solution containing approximately 15% ethanol and approximately 1% acetic acid. The gels were then washed with distilled water for approximately 4 hours. To determine molecular weights of protein fractions, the gel was stained with a solution containing approximately 0.21% Coomassi Blue G-250, about 40% ethanol, and about 7% acetic acid. Washed gels were tested against three target bacteria, C. jejuni NCTC 11168, E. coli 0157:H7 904, and S. enteritidis 204 by the method of Bhunia et al. (Journal of Industrial Microbiology, Volume 2, 319-322, 1987; herein incorporated by reference). The gels were placed in Petri dishes, covered with 5% blood-semi-solid Campylobacter agar (about 0.75%) or semi-solid MPA, and seeded with cells of the test strains. Plates containing C. jejuni were incubated at about 42° C. for approximately 48 hours under microaerobic conditions, E. coli 0157:H7 and S. enteriditidis at about 37° C. for approximately 24 hours. Assessment was based on visualization of zones of the inhibited growth of the test strains in the presence of bacteriocins.
(§2) Specimens of bacteriocins were placed on IEF gels (pH approximately 4.4-10.0) (Novex, San Diego, Calif.). The gels were run at about 100V for about 1 hour, 200V for about 2 hour, and 500V for about 30 minutes in XCM II™ Mini-Cell (Novex). Gels were washed with distilled water for about 4 hours without fixation followed by staining with Coomassie Blue G-250 to determine isoelectric points (pI) of the bacteriocins and their ability to inhibit the growth of the test strains as presented in FIGS. 1 and 2 and in Table 2.

E. coli O157:H7 OD-3 = experiment: MIC by spot test; assay type: cell-based
S. enteritidis 1 = experiment: MIC by spot test; assay type: cell-based
Sh. dysenteriae = experiment: MIC by spot test; assay type: cell-based
E. coli C600 = experiment: MIC by spot test; assay type: cell-based
E. coli HB101 = experiment: MIC by spot test; assay type: cell-based
L. monocytogenes 9-72 = experiment: MIC by spot test; assay type: cell-based
C. jejuni L4 = experiment: MIC by spot test; assay type: cell-based
S. choleraesuis 370 = experiment: MIC by spot test; assay type: cell-based
[3] = test system: Pseudomonas aeruginosa 25583; experiment: MIC by spot test; assay type: cell-based
Y. pseudotuberculosis = assay type: cell-based
C. jejuni NCTC 11168 [4] = experiment: Spot test; assay type: cell-based, Campylobacter jejuni; details: for Inhibiting activity in Spot Test: crude antimicrobial preparation (CAP), C. jejuni NCTC 11168; for Inhibiting Activity, Spot Test: purified bacteriocin, C. jejuni
E. coli O157:H7 Y-63 = experiment: MIC by spot test; assay type: cell-based
Morganella morganii = experiment: MIC by spot test; assay type: cell-based
S. enteritidis 204 [5] = experiment: Spot test; assay type: cell-based; details: for Inhibiting activity in Spot Test: crude antimicrobial preparation (CAP); for Inhibiting Activity, Spot Test: purified bacteriocin
S. choleraesuis 434/4 = experiment: MIC by spot test; assay type: cell-based
[6] = test system: Staphylococcus epidermidis; experiment: MIC by spot test; assay type: cell-based
S. gallinarum pullorum = experiment: MIC by spot test; assay type: cell-based
S. typhimurium 383/60 = experiment: MIC by spot test; assay type: cell-based
S. enteritidis 4 = experiment: MIC by spot test; assay type: cell-based
C. jejuni NCTC 11168 [7] = experiment: Influence of enzymes on bacteriocin activity (spot test); assay type: physicochemical, Campylobacter jejuni
E. coli O157:H7 904 [8] = experiment: IEF gel tested for growth inhibition of test strain; assay type: cell-based; details: for Inhibiting Activity measured by IEF: CAP, active band, E. coli O157:H7 904; for Inhibiting Activity IEF: purified bacteriocin, E. coli O157:H7
Method: as §1, §2

S. enteritidis 204 [9] = experiment: as above; assay type: cell-based; details: for Inhibiting Activity measured by IEF: CAP, active band; for Inhibiting Activity IEF: purified bacteriocin
Method: as §1, §2

Helicobacter pylori = experiment: MIC of purified bacteriocins and antibiotic by Spot Test; assay type: cell-based; details: H. pylori; 24 hours at 37° C., microaerobic
Method: (§3) The minimal inhibiting concentrations (MICs) of bacteriocins 760 and 50-52 and Methicillin were determined by Spot Test. Various concentrations of purified bacteriocins (μg/ml) in a volume of 10 μl was added to cultures of Staphylococcus aureus, Staphylococcus epidermidis, Pseudomonas aeruginosa, and Helicobacter pylori. The cultures were incubated for about 24 hours at about 37° C. under aerobic conditions for all but Helicobacter pylori which was incubated under microaerobic conditions.

Pseudomonas aeruginosa = experiment: as above; assay type: cell-based; details: P. aeruginosa; 24 hours at 37° C., aerobic
Method: as §3

Staphylococcus aureus = experiment: as above; assay type: cell-based; details: S. aureus; 24 hours at 37° C., aerobic
Method: as §3

[10] = test system: Staphylococcus epidermidis; experiment: as above; assay type: cell-based; details: S. epidermidis; 24 hours at 37° C., aerobic
Method: as §3

Y. enterolitica 04 = experiment: MIC by spot test; assay type: cell-based, Y. enterocolitica
Klebsiella pneumoniae = experiment: MIC by spot test; assay type: cell-based
S. enteritidis 204 [11] = experiment: MIC by spot test; assay type: cell-based

Q: What does the source list for “Bacteriocin 50-52: bacteriocin produced by Enterococcus durans/faecium/hirae NRRL B-30746 (strain 50-52); amino acid sequence SEQ ID NO 1 (TTKNYGNGVCNSVNWCQCGNVWASCNLATGCAAWLCKLA; listed as Enterococcus faecium)”?
A: Inhibiting activity in Spot Test (E. coli O157:H7 904 [1]): 3,200 AU/ml; Inhibiting Activity, Spot Test (E. coli O157:H7 904 [1]): 6,400 AU/ml; Inhibiting Activity measured by IEF (C. jejuni NCTC 11168 [2]): band 1; Inhibiting Activity IEF (C. jejuni NCTC 11168 [2]): +Band 1; MICs (E. coli O157:H7 OD-3): 0.1 µg/mL; MICs (S. enteritidis 1): 0.1 µg/mL; MICs (Sh. dysenteriae): 0.4 µg/mL; MICs (E. coli C600): 0.1 µg/mL; MICs (E. coli HB101): 0.1 µg/mL; MICs (L. monocytogenes 9-72): 0.2 µg/mL; MICs (C. jejuni L4; C. jejuni L-4): 0.2 µg/mL; MICs (S. choleraesuis 370): 0.1 µg/mL; MICs [3]: 3.2 µg/mL; MICs (Y. pseudotuberculosis; Y. pseudotuberculosis): 0.4 µg/mL; Inhibiting activity in Spot Test (C. jejuni NCTC 11168 [4]): 12,800 AU/ml; Inhibiting Activity, Spot Test (C. jejuni NCTC 11168 [4]): 12,800 AU/ml; MICs (E. coli O157:H7 Y-63): 0.1 µg/mL; MICs (Morganella morganii): 3.2 µg/mL; Inhibiting activity in Spot Test (S. enteritidis 204 [5]): 12,800 AU/ml; Inhibiting Activity, Spot Test (S. enteritidis 204 [5]): 12,800 AU/ml; MICs (S. choleraesuis 434/4): 0.1 µg/mL; MICs ([6]; Staphylococcus epidermis): 3.2 µg/mL; MICs (S. gallinarum pullorum): 0.1 µg/mL; MICs (S. typhimurium 383/60): 0.1 µg/mL; MICs (S. enteritidis 4): 0.1 µg/mL; Antimicrobial activity after treatment (C. jejuni NCTC 11168 [7]; treated with beta-chymotrypsin): lost their antimicrobial activity; Antimicrobial activity after treatment (C. jejuni NCTC 11168 [7]; treated with lipase): retained it; Antimicrobial activity after treatment (C. jejuni NCTC 11168 [7]; treated with lysozyme): retained it; Antimicrobial activity after treatment (C. jejuni NCTC 11168 [7]; treated with papain): lost their antimicrobial activity; Antimicrobial activity after treatment (C. jejuni NCTC 11168 [7]; treated with proteinase K): lost their antimicrobial activity; Inhibiting Activity measured by IEF (E. coli O157:H7 904 [8]): band 1; Inhibiting Activity IEF (E. coli O157:H7 904 [8]): +Band 1; Inhibiting Activity measured by IEF (S. enteritidis 204 [9]): band 1; Inhibiting Activity IEF (S. enteritidis 204 [9]): +Band 1; MIC of purified Bacteriocins and Antibiotic (Helicobacter pylori): 0.8 µg/mL; MIC of purified Bacteriocins and Antibiotic (Pseudomonas aeruginosa): 0.8 µg/mL; MIC of purified Bacteriocins and Antibiotic (Staphylococcus aureus): 0.1 µg/mL; MIC of purified Bacteriocins and Antibiotic [10]: 0.4 µg/mL; MICs (Y. enterolitica 04): 0.1 µg/mL; MICs (Klebsiella pneumoniae): 0.2 µg/mL; MICs (S. enteritidis 204 [11]): 0.2 µg/mL

B1: Bacteriocin 760: bacteriocin produced by Enterococcus durans/faecium/hirae NRRL B-30745 (strain 760); amino acid sequence SEQ ID NO 2 (protein, listed as Streptococcus cricetus)
chain: NRWYCNSAAGGVGGAAVCGLAGYVGEAKENIAGEVRKGWGMAGGFTHNKACKSFPGSGWASG
Q: What does the source list for B1?
A: Inhibiting activity in Spot Test (E. coli O157:H7 904 [1]): 12,800 AU/ml; Inhibiting Activity, Spot Test (E. coli O157:H7 904 [1]): 12,800 AU/ml; Inhibiting Activity measured by IEF (C. jejuni NCTC 11168 [2]): band 1; Inhibiting Activity IEF (C. jejuni NCTC 11168 [2]): +Band 1; MIC (E. coli O157:H7 OD-3): 1600 µg/mL; MIC (S. enteritidis 1): 200 µg/mL; MIC (Sh. dysenteriae): 100 µg/mL; MIC (E. coli C600): 100 µg/mL; MIC (E. coli HB101): 100 µg/mL; MIC (L. monocytogenes 9-72): 100 µg/mL; MIC (C. jejuni L4; C. jejuni L4): 100 µg/mL; MIC (S. choleraesuis 370): 400 µg/mL; MIC [3]: 400 µg/mL; MIC (Y. pseudotuberculosis): 3200 µg/mL; Inhibiting activity in Spot Test (C. jejuni NCTC 11168 [4]): 51,200 AU/ml; Inhibiting Activity, Spot Test (C. jejuni NCTC 11168 [4]): 51,200 AU/ml; MIC (E. coli O157:H7 Y-63): 1600 µg/mL; MIC (Morganella morganii): 3200 µg/mL; Inhibiting activity in Spot Test (S. enteritidis 204 [5]): 12,800 AU/ml; Inhibiting Activity, Spot Test (S. enteritidis 204 [5]): 12,800 AU/ml; MIC (S. choleraesuis 434/4): 400 µg/mL; MIC ([6]; Staphylococcus epidermidis): 1600 µg/mL; MIC (S. gallinarum pullorum): 400 µg/mL; MIC (S. typhimurium 383/60): 400 µg/mL; MIC (S. enteritidis 4): 400 µg/mL; Antimicrobial activity after treatment (C. jejuni NCTC 11168 [7]; treated with beta-chymotrypsin): lost their antimicrobial activity; Antimicrobial activity after treatment (C. jejuni NCTC 11168 [7]; treated with lipase): retained it; Antimicrobial activity after treatment (C. jejuni NCTC 11168 [7]; treated with lysozyme): retained it; Antimicrobial activity after treatment (C. jejuni NCTC 11168 [7]; treated with papain): lost their antimicrobial activity; Antimicrobial activity after treatment (C. jejuni NCTC 11168 [7]; treated with proteinase K): lost their antimicrobial activity; Inhibiting Activity measured by IEF (E. coli O157:H7 904 [8]): band 1; Inhibiting Activity IEF (E. coli O157:H7 904 [8]): +Band 1; Inhibiting Activity measured by IEF (S. enteritidis 204 [9]): band 1; Inhibiting Activity IEF (S. enteritidis 204 [9]): +Band 1; MIC of purified Bacteriocins and Antibiotic (Helicobacter pylori): 0.2 µg/mL; MIC of purified Bacteriocins and Antibiotic (Pseudomonas aeruginosa): 0.4 µg/mL; MIC of purified Bacteriocins and Antibiotic (Staphylococcus aureus): 1.6 µg/mL; MIC of purified Bacteriocins and Antibiotic [10]: 1.6 µg/mL; MIC (Y. enterolitica 04): 100 µg/mL; MIC (Klebsiella pneumoniae): 3200 µg/mL; MIC (S. enteritidis 204 [11]): 200 µg/mL
